Source: publication PMC6399494

How the values were obtained:
[1] = immunoblot, Hepa1c1c7 lysate, normalised to actin; settings: glycan gained; control: wild type full-length LDLR
[2] = cell-surface biotinylation and confocal microscopy, HEK293; settings: glycan gained; control: wild type full-length LDLR
[3] = immunoblot of mature LDLR form, HEK293; settings: glycan lost; control: DMSO-treated cells

Substance	expression_or_secretion [1]	localisation_or_trafficking [2]	localisation_or_trafficking [3]
LDL receptor (LDLR): D203N	no change	no change	
LDL receptor (LDLR): tunicamycin, WT LDLR			no change
